Laboratory results as given in patent publication US20210388105A1 (ELPISCIENCE SUZHOU BIOPHARMA, published 2021).
Residue numbers refer to the chain shown, from its start.

B1: Antibody T895 (antibody, V domains shown)
VH: EVQLQQSGPELVKPGASVKMSCKASGYTFTDYNMHWVKQSHGRTLEWIGYIVPLNGGSTFNQKFKGRATLTVNTSSRTAYMELRSLTSEDSAAYYCARGGTRFAYWGQGTLVTVSA
VL: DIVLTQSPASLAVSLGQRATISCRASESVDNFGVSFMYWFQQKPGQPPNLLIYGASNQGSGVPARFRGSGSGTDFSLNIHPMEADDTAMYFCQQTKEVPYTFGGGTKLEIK
notes: also called 31895
B2: hu23.H5L5 (antibody, V domains shown)
VH: QVQLVQSGAEVKKPGASVKVSCKASGYNLKDTFLHWVRQAPGQGLEWMGRIDPANGNIKYDPKFQGRVTITADTSANTAYMELISLRSEDTAVYYCANSPYYYGSGYRIFDVWGQGTTVTVSS
VL: QIVLTQSPATLSLSPGERATLSCSAFSSVNYMHWYQQKPGQAPRLLIYTTSNLASGIPTRFSGSGSGTSYTLTISSLEPEDFAVYYCQQRSTYPFTFGQGTKLEIK
notes: humanized c23
B3: Antibody 9-8B (antibody, V domains shown)
VH: QIQLVQSGPELKKPGETVKISCKASGYTFTHYGMNWVKQAPGKGLKWMGWINTYTGELTYADDFKGRFAFSLETSASTAYLQINNLKNEDTATYFCARRAYYRYDYVMDYWGQGTSVTVSS
VL: DIVMTQSQKFMSTSVGDRVSVTCKASHNVGTNVAWYQQKPGQSPKALIYSASYRYSGVPGRFTGSGSGTDFTLTISNVQSEDLAEYFCHQYNNYPYTFGGGTKLEIK
B4: c34 (antibody, V domains shown)
VH: EIQVQQSGPELVKPGASVKVSCKASGYSFTDYNMYWVKQSHGKSLEWIGFIDPYNGYTSYNQKFKGKATLTIDKSSSTAFMHLNSLTSEDSAVYYCAIYGYDDAYYFDYWGQGTTLTVSS
VL: QIVLTQSPAIMSASPGEKVTITCSATSSVSYMHWFRQKPGTSPKLWIYSTSNLASGVPARFSGSGSGTSYSLTISRMAAEDAATYYCQQRITYPFTFGSGTKLEIT
notes: its making is not described; also called chimeric antibody c34

The binders below were run against T1, human CD39 (full length, on cells) (human, UniProt P49961 1-510) (assay: FACS, MOLP-8 cells).
T1 construct: Recombinant on CHOK1-hCD39 cells or natural on SK-MEL-28, SK-MEL-5 and MOLP-8 cells; the cell line is named under assay; also called hCD39; ENTPD1
T1 sequence: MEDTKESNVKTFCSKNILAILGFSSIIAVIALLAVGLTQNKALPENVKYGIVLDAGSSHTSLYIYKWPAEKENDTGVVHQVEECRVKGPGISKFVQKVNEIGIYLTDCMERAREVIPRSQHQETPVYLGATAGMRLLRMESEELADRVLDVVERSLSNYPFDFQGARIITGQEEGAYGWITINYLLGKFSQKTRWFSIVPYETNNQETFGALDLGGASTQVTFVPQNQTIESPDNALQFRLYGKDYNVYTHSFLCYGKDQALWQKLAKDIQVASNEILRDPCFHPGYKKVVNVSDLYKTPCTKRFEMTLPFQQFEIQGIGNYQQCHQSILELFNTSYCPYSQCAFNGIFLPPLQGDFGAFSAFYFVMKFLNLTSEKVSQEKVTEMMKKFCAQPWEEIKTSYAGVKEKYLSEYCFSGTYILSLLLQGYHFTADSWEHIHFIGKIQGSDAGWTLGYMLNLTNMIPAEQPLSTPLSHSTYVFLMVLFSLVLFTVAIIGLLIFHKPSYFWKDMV
Description: Similarly, human CD39 expressing cells SK-MEL-5, SK-MEL-28 or MOLP-8, were incubated with a gradient concentration of anti-CD39 antibodies for 30 minutes at 4° C. Cells were washed 3 times using FACS buffer and next incubated with fluorescence labelled secondary antibody (goat-anti-mouse IgG or goat anti-human IgG) for 30 minutes at 4° C. Cells were washed 3 times and then re-suspended in FACS buffer and analyzed by flow cytometry analysis on BD Celesta. Data plotted and analyzed using GraphPad Prism 8.02.
Binding affinity of the humanized antibodies hu23.H5L5 and hu14.H1L1 were tested on different cells by FACS following the similar method as described in Example 3.2.
Reference antibodies T895 and 1394 were tested in parallel as control antibodies. As shown in FIG. 12 and summarized in Table 23, both antibodies hu23.H5L5 and hu14.H1L1 bound to human and cynomolgus CD39 expressing cells in a dose-dependent manner and with similar affinity by EC₅₀ at a sub-nanomolar or nanomolar level. Neither of them recognized mouse CD39 in the FACS study. Maximum signal (mean fluorescence intensity, MFI) differed between cells for each antibody may result from their different expression level.

Binder | EC50
B1 | 0.11 nM
B2 | 0.14 nM

The binders below were run against T2, human CD39 (protein; form not stated) (human, UniProt P49961 38-478, limits assumed) (assay: Octet (BLI), antibody on sensor, CD39 in solution).
T2 construct: also called ENTPD1; ENTPDase 1
T2 sequence: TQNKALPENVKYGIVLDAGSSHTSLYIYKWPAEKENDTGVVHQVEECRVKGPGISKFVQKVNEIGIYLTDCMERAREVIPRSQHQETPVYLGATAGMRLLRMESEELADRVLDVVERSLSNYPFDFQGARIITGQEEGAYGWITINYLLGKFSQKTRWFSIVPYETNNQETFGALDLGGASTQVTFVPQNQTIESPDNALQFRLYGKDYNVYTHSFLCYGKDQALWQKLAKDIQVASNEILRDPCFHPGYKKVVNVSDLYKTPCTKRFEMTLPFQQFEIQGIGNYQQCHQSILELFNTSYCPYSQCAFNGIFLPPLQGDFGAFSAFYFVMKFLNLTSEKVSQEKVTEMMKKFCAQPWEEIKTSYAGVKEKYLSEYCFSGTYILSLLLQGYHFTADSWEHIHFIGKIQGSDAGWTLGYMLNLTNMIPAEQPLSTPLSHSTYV
Description: Briefly, the antibodies were coupled on sensors and then the sensors were dipped into CD39 gradients (start at 200 nM, with 2-fold dilution and totally 8 doses). Their binding responses were measured in real-time and results were fit globally.

Binder | Kd | koff | kon
B1 | 6.62 nM | 0.00444 s⁻¹ | 671000 M⁻¹ s⁻¹
B2 | 0.687 nM | 9.36e-05 s⁻¹ | 136000 M⁻¹ s⁻¹
B3 | 20.2 nM | 0.00243 s⁻¹ | 120000 M⁻¹ s⁻¹

Biological target: T3, KW27-16 (human CD39 mutant, C-terminal EGFP) (human, UniProt P49961 1-510)
T3 construct: expressed on HEK293F cells; not shown: C-terminal EGFP fusion (vector pCMV3-GFPSpark)
T3 chain: T1 sequence with K5A, E100A, D107A
Assay: FACS on transfected HEK293F cells, relative binding = AlexaFluor647 / GFP
Description: Briefly, the human CD39 mutants were generated by gene synthesis and then cloned into an expression vector pCMV3-GFPSpark. The vectors containing the validated mutated sequences were prepared and transfected into HEK293F cells. Three days post transfection, the cells were collected to testing EGFP for transgene expression. A range of dosages of antibodies (start from 100 nM, 3-folds dilution, 11 points) were tested on the 20 generated mutants and stained by AlexFluor647 labelled anti-hIgG by FACS. Antibody binding was descripted as relative binding which is derived from AlexFluor647 intensity divided by GFP intensity.

Binder | binding result
B4 | no binding
B1 | binds
B2 | binds
B3 | binds
